Assay results from patent publication US20050277167A1, “Prolyl 3-hydroxylases” (priority 2004, published 2005).

How the values were obtained:
[1] = biological target: T1, [2,3-3H]-L-proline-labeled procollagen substrate (Gallus gallus, UniProt Q6JHU8); experiment: Prolyl 3-hydroxylase activity assay, release of tritiated water (THO) from labeled procollagen substrate; assay type: biochemical, chicken; details: same Km expressed per ml reaction volume
T1 construct: Purified P3H1 from 15-day-old chick embryos was tested for its enzymatic activity using a labeled procollagen substrate; from tissue; host or cells: 15 day-old chick embryos: rER-enriched extract, gelatin-Sepharose, then 1C10 antibody column eluted at pH 2.5
T1 sequence (Q6JHU8 15-725): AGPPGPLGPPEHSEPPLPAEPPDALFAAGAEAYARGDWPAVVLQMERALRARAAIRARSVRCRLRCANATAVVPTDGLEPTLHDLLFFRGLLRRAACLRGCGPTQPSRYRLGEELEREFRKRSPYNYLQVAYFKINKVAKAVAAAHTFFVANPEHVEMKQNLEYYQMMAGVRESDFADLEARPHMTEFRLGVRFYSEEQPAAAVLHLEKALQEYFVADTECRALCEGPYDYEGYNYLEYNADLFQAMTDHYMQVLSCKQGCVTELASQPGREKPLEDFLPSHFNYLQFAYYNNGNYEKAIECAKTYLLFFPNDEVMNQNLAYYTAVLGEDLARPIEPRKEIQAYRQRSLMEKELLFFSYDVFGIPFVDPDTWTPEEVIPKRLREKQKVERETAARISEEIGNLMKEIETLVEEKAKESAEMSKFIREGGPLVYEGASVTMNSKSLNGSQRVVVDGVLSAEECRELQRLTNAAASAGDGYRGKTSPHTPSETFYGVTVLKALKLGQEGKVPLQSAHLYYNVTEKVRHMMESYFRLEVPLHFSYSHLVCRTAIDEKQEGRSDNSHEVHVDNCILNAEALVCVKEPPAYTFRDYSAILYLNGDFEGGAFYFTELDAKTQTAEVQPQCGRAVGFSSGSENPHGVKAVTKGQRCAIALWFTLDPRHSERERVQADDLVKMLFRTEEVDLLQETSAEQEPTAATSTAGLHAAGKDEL
Experimental: Prolyl 3-hydroxylase activity was measured based on the amount of tritiated water (THO) formed from a labeled procollagen substrate (Kivirikko et al. Matrix Biol, 16, 357-368 (1998); Risteli et al. Anal Biochem, 84, 423-431 (1978)) with the following modifications. [2,3-^3H]-L-Proline, 42 Ci/mmol, was purchased from Sigma.[2,3-^3H]-proline-labeled nonhydroxylated procollagen was prepared from the isolated cells of the leg tendons from 12 dozen 15 day-old chicken embryos (Berg et al., Biochemistry, 12, 3395-3401 (1973); Dehm et al. Biochim Biophys Acta, 264, 375-382 (1972); Kivirikko et al., Methods Enzymol, 82 Pt A, 245-304 (1982)). […]
The prolyl 3-hydroxylase reactions were performed as described previously (Kivirikko et al., 1982; Risteli et al., 1978; Tryggvason et al., 1976) but with the following modifications: the enzyme reaction was carried out for 60 minutes at 24° C. in a final volume of 2.0 mls containing 1×10^6 dpm [2,3-^3H]-L-proline-labeled substrate, 0.08 mM FeSO^4, 2 mM ascorbic acid, 0.5 mM 2-oxoglutarate, 0.2 mg/ml catalase, 2 mg/ml bovine serum albumin, 0.1 mM dithiothreitol, and 0.05 M Tris-HCl, pH 7.8. […] A 1.8 ml aliquot of the tritiated water was mixed with 10 mls Ecolume liquid scintillation cocktail (ICN) and counted in a Beckman LS5000TD liquid scintillation counter. […]

[2] = biological target: T2, (Pro-Pro-Gly)10 substrate (Gallus gallus, UniProt Q6JHU8); experiment: Prolyl 4-hydroxylase activity assay, hydroxylation-coupled decarboxylation of 2-oxo[1-14C]glutarate; assay type: biochemical; details: purified P3H1 enzyme
T2 construct: Purified P3H1 from 15-day-old chick embryos was tested for its enzymatic activity using a labeled procollagen substrate; from tissue; host or cells: 15 day-old chick embryos: rER-enriched extract, gelatin-Sepharose, then 1C10 antibody column eluted at pH 2.5
T2 sequence (Q6JHU8 15-725): T1 sequence (Q6JHU8 15-725)
Experimental: The prolyl 4-hydroxylase activity was assayed by a method based on the hydroxylation-coupled decarboxylation of 2-oxo[1-^14C]glutarate (Kivirikko et al., 1982). The reaction was performed in a final volume of 1.0 ml, which contained 0.1 mg (Pro-Pro-Gly)10.9H^2O as substrate, 2 mM ascorbic acid, 0.05 mM FeSO^4, 0.1 mM dithiothreitol, 2 mg/ml bovine serum albumin, 0.1 mg/ml catalase, 50 mM Tris-HCl, pH 7.8, and 0.1 mM 2-oxo[1-^14C]glutarate (100,000 dpm). The reaction was stopped by the addition of 1 ml of 1 M KH2PO4, pH 5.0.

B1: P3H1: prolyl 3-hydroxylase 1 purified from 15-day-old chick embryos, chicken homologue of leprecan (protein)
chain: T1 sequence (Q6JHU8 15-725)
With B1 the Km [1] was 89.5 μl of substrate per ml and the “prolyl 4-hydroxylase activity” value [2] was “did not have any prolyl 4-hydroxylase activity”.
